Read-outs that look alike come from different tables or passages of the source.
Assays:
[1] = target: T1, mouse Smoothened (SMO) residues 64-566, crystallization construct (Mus musculus, UniProt P56726); experiment: SPR
[2] = target: T1, mouse Smoothened (SMO) residues 64-566, …; experiment: SPR; remark: listed apart in the source

T1 sequence (P56726 64-566): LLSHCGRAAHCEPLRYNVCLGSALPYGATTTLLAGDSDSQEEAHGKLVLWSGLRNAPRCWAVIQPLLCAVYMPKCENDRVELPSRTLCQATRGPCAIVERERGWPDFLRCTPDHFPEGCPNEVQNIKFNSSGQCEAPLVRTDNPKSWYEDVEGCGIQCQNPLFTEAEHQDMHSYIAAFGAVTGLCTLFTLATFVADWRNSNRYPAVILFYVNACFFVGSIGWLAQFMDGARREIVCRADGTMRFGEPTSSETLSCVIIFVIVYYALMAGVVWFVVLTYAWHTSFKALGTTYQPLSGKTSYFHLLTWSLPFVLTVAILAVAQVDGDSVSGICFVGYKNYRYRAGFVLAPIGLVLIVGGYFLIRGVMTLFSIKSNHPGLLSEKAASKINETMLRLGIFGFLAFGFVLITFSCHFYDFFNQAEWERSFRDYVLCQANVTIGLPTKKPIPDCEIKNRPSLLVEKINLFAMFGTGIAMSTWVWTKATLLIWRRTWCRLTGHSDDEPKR

- Kd [1]: 117 nM
- Kd [2]: 168 nM
B1: NbSmo8 with a C-terminal hexahistidine tag (VHH)
VHH: QVQLQESGGGLVQAGGSLRLSCAASGYIFSSYAMGWYRQAPGKEREFVATIGWGTITYYADSVKGRFTISRDNAKNTVYLQMNSLKPEDTAVYYCAAQDLLYYSFPGDHAYWGQGTQVTVSS
